Results from article PMC4360740, “Novel Type II and Monomeric NAD^+ Specific Isocitrate Dehydrogenases: Phylogenetic Affinity, Enzymatic Characterization, and Evolutionary Implication” (Scientific Reports, 2015).
Read-outs that look alike come from different tables or passages of the source. One block for each molecule: values may come before it.

Columns and labels:
[1] = molecular target: Campylobacter sp. FOBRC14 isocitrate dehydrogenase (Campylobacter sp. FOBRC14); assay: SEC; Superdex 200 10/300 column, 0.05 M potassium phosphate pH 7.0, 0.15 M NaCl, 0.01% sodium azide, flow 0.5 ml/min; mass estimated against protein standards
[2] = system: T1, CaIDH; details: read-out: NADP^+ / Km; 1.0 mM isocitrate fixed; 35 mM Tris-HCl pH 7.5, 2 mM MgCl2 or MnCl2, 25°C; Methods print the second mutation as Asp594Arg
T1 construct: gene IDH

[3] = system: T1, CaIDH; details: read-out: NAD^+ / Km; 1.0 mM isocitrate fixed; 35 mM Tris-HCl pH 7.5, 2 mM MgCl2 or MnCl2, 25°C; Methods print the second mutation as Asp594Arg
[4] = molecular target: Ostreococcus lucimarinus CCE9901 isocitrate dehydrogenase (Ostreococcus lucimarinus CCE9901); assay: MALDI-TOF/TOF mass spectrometry; AB SCIEX MALDI TOF-TOF 5800, linear high mass positive-ion mode, SA matrix, TFA as ionization auxiliary reagent
[5] = molecular target: Ostreococcus lucimarinus CCE9901 isocitrate dehydrogenase (Ostreococcus lucimarinus CCE9901); assay: SEC; Superdex 200 10/300 column, 0.05 M potassium phosphate pH 7.0, 0.15 M NaCl, 0.01% sodium azide, flow 0.5 ml/min; mass estimated against protein standards
[6] = system: NC(=O)c1ccc[n+]([C@@H]2O[C@H](COP(=O)(O)OP(=O)(O)OC[C@H]3O[C@@H](n4cnc5c(N)ncnc54)[C@H](O)[C@@H]3O)[C@@H](O)[C@H]2O)c1; assay: purified protein; details: 1.0 mM isocitrate fixed, 35 mM Tris-HCl pH 7.5, 2 mM MgCl2 or MnCl2, 25°C, varied: cofactor
[7] = system: NC(=O)c1ccc[n+]([C@@H]2O[C@H](COP(=O)(O)OP(=O)(O)OC[C@H]3O[C@@H](n4cnc5c(N)ncnc54)[C@H](OP(=O)(O)O)[C@@H]3O)[C@@H](O)[C@H]2O)c1; assay: purified protein; details: 1.0 mM isocitrate fixed, 35 mM Tris-HCl pH 7.5, 2 mM MgCl2 or MnCl2, 25°C, varied: cofactor
[8] = substrate: NC(=O)c1ccc[n+]([C@@H]2O[C@H](COP(=O)(O)OP(=O)(O)OC[C@H]3O[C@@H](n4cnc5c(N)ncnc54)[C@H](O)[C@@H]3O)[C@@H](O)[C@H]2O)c1; assay: purified protein; format: biochemical, Micromonas commoda; details: 1.0 mM isocitrate fixed, 35 mM Tris-HCl pH 7.5, 2 mM MgCl2 or MnCl2, 25°C, varied: cofactor
[9] = substrate: NC(=O)c1ccc[n+]([C@@H]2O[C@H](COP(=O)(O)OP(=O)(O)OC[C@H]3O[C@@H](n4cnc5c(N)ncnc54)[C@H](OP(=O)(O)O)[C@@H]3O)[C@@H](O)[C@H]2O)c1; assay: purified protein; format: biochemical, Micromonas commoda; details: 1.0 mM isocitrate fixed, 35 mM Tris-HCl pH 7.5, 2 mM MgCl2 or MnCl2, 25°C, varied: cofactor
[10] = substrate: NC(=O)c1ccc[n+]([C@@H]2O[C@H](COP(=O)(O)OP(=O)(O)OC[C@H]3O[C@@H](n4cnc5c(N)ncnc54)[C@H](O)[C@@H]3O)[C@@H](O)[C@H]2O)c1; assay: purified protein; format: biochemical, Ostreococcus sp. 'lucimarinus'; details: 1.0 mM isocitrate fixed, 35 mM Tris-HCl pH 7.5, 2 mM MgCl2 or MnCl2, 25°C, varied: cofactor
[11] = substrate: NC(=O)c1ccc[n+]([C@@H]2O[C@H](COP(=O)(O)OP(=O)(O)OC[C@H]3O[C@@H](n4cnc5c(N)ncnc54)[C@H](OP(=O)(O)O)[C@@H]3O)[C@@H](O)[C@H]2O)c1; assay: purified protein; format: biochemical, Ostreococcus sp. 'lucimarinus'; details: 1.0 mM isocitrate fixed, 35 mM Tris-HCl pH 7.5, 2 mM MgCl2 or MnCl2, 25°C, varied: cofactor

fraction eluting as dimer [1]: < 5%
Molecule: Campylobacter sp. FOBRC14 isocitrate dehydrogenase (enzyme)

Molecule: NC(=O)c1ccc[n+]([C@@H]2O[C@H](COP(=O)(O)OP(=O)(O)OC[C@H]3O[C@@H](n4cnc5c(N)ncnc54)[C@H](OP(=O)(O)O)[C@@H]3O)[C@@H](O)[C@H]2O)c1 [NADP^+]
Km [2]: 11.4 ± 4.6 µM

Molecule: NC(=O)c1ccc[n+]([C@@H]2O[C@H](COP(=O)(O)OP(=O)(O)OC[C@H]3O[C@@H](n4cnc5c(N)ncnc54)[C@H](O)[C@@H]3O)[C@@H](O)[C@H]2O)c1 [NAD^+]
Km [3]: 493 ± 52.5 µM

stoichiometry N [4]: 2
stoichiometry N [5]: 2
Molecule: Ostreococcus lucimarinus CCE9901 isocitrate dehydrogenase (enzyme)

Molecule: CaIDH (Campylobacter sp. FOBRC14)
Km [6]: 28.9 ± 4.5 µM
kcat [6]: 7 ± 0.8 s⁻¹
kcat/Km [6]: 242000 M⁻¹ s⁻¹
Km [7]: 513.2 ± 14.9 µM
kcat [7]: 1.9 ± 0.1 s⁻¹
kcat/Km [7]: 4000 M⁻¹ s⁻¹

B1: MiIDH (Micromonas commoda) (protein)
chain: MAAASAGGKIQAAPMVYVAGEEMTRYTMDLILERWIKPHVDTSAWEFFDLRAKNRDDTEDQVLRDVISAGARLKAIFKEPTITPTADQVKRLGLKKAWGSPNGAMRRGWNGITISRDTIHIDGVELGYKKPVFFERHAVGGEYSAGYKIVGKGKLTTTFVPEAGGEPIVVDDRKITDDLNAVVAYHNPLDNVAHLARIFFGRCLDAGIVPYVVTKKTVFKWQEPFWESMKTVFDAEFKQKFYEKGVMKPGSELVHLLSDAATMKLVVWTDGGFGMAAHNYDGDVLTDELAQVHKSPGFITSNLVGVDDNGTLIKEFEASHGTVTDMDEARLRGEETSLNPLGMVEGLIGAMNHAADVHGGSSGVHPWTGKLRAVIHKLFREGRGTRDLCGAGGLTTEQFIDAVAEEL
notes: full-length synthetic codon-optimised gene in pET-28b(+) NdeI/XhoI, 6xHis-tagged, E. coli Rosetta (DE3); described as homodimeric
Km [8]: 126 ± 5.3 µM
kcat [8]: 22.5 ± 2 s⁻¹
kcat/Km [8]: 179000 M⁻¹ s⁻¹
Km [9]: 1827 ± 42.4 µM
kcat [9]: 1.4 ± 0.2 s⁻¹
kcat/Km [9]: 800 M⁻¹ s⁻¹

B2: OlIDH (Ostreococcus lucimarinus CCE9901) (protein)
chain: MSANASKITAAPMVYVRGEEMTAYVMDLIRAKWIEPRVDTTAWREFDLRAKNRDDTEDQVLRDVIEAGKAVKAIFKEPTVTPTADQVKRLGLRKSWGSPNGAMRRGWNGITISRDTIHIDGVELGYKKPVFFERHAVGGEYAAGYKNVGKGTLVTTFTPSEGPDAGKPVEVDSRTITDNEAAVVTYHNPYDNVHELARFFFGRCLEAKITPYVVTKKTVFKWQEPFWQIMKKVFDEEYKSKFVDAGVMKSGDELVHLLSDAATMKLVQWRQGGFGMAAHNYDGDVLTDELAQIHKSPGFITSNLVGVDENGTLIKEFEASHGTVADMDEARLRGEETSLNPLGMVEGLIGAMNHAADVHNVDKERTLAFTAKMRAVIHQLFREGKGTRDLSGPSGLTTEQFVDAVAERL
notes: full-length synthetic codon-optimised gene in pET-28b(+) NdeI/XhoI, 6xHis-tagged, E. coli Rosetta (DE3); about 46 kDa subunit, 415 residues as used in CD calculation; homodimer 93 kDa by MALDI
Km [10]: 136.6 ± 13.6 µM
kcat [10]: 60.6 ± 3.8 s⁻¹
kcat/Km [10]: 444000 M⁻¹ s⁻¹
Km [11]: 2211 ± 75 µM
kcat [11]: 10 ± 1.6 s⁻¹
kcat/Km [11]: 4500 M⁻¹ s⁻¹

B3: OlIDH (Ostreococcus lucimarinus CCE9901; D326R/M327H) (protein)
chain: MSANASKITAAPMVYVRGEEMTAYVMDLIRAKWIEPRVDTTAWREFDLRAKNRDDTEDQVLRDVIEAGKAVKAIFKEPTVTPTADQVKRLGLRKSWGSPNGAMRRGWNGITISRDTIHIDGVELGYKKPVFFERHAVGGEYAAGYKNVGKGTLVTTFTPSEGPDAGKPVEVDSRTITDNEAAVVTYHNPYDNVHELARFFFGRCLEAKITPYVVTKKTVFKWQEPFWQIMKKVFDEEYKSKFVDAGVMKSGDELVHLLSDAATMKLVQWRQGGFGMAAHNYDGDVLTDELAQIHKSPGFITSNLVGVDENGTLIKEFEASHGTVARHDEARLRGEETSLNPLGMVEGLIGAMNHAADVHNVDKERTLAFTAKMRAVIHQLFREGKGTRDLSGPSGLTTEQFVDAVAERL
notes: as for B2
Km [10]: 2941.3 ± 75.8 µM
kcat [10]: 29.1 ± 7.9 s⁻¹
kcat/Km [10]: 10000 M⁻¹ s⁻¹
Km [11]: 8.2 ± 1.9 µM
kcat [11]: 1.8 ± 0.2 s⁻¹
kcat/Km [11]: 220000 M⁻¹ s⁻¹
